Assay results as given in the supplement of paper PMC10724198.
± gives the standard deviation of the averaged measurements.

tested on: Saccharomyces cerevisiae; assay: protein stability index of tFT-peptide fusion (C-terminal peptide) (PSI (0-1 scale)); higher = more stable (slower turnover); conditions: genetic background: wild type; temperature: 30 C
Method: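 MPS profiling in S. cerevisiae of the yeast C-terminome library: the last 12 aa of each annotated ORF are fused to the C-terminus of a sfGFP-mCherry timer, after a GGGS linker. Cells are FACS-sorted into 8 mCherry/sfGFP bins and deep-sequenced. PSI runs from 0 (unstable) to 1 (stable); wild type and das1Δ backgrounds, two technical replicates each.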

NVGKQLSNEIIY [PRP28 C-terminal 12 aa] and NVLGEPFDRYLD [UTP10 C-terminal 12 aa] are within error of each other in protein stability index: 0.686 ± 0.042 for the first, 0.716 ± 0.013 for the second.

Compared with NVPVSNGTTAAQ [UTP23 C-terminal 12 aa], NYFIITCIGIIM [YPL261C C-terminal 12 aa] is lower in protein stability index: 0.691 ± 0.025 for the first, 0.247 ± 0.0067 for the second.

Going from NYGQYSSFWSLL [YOR055W C-terminal 12 aa] to PADIATDHDITM [TAF8 C-terminal 12 aa], the protein stability index falls from 0.754 ± 0.017 to 0.685 ± 0.0044.

PAKVGIVKGEEN [MGE1 C-terminal 12 aa] and PCRYLELRKFGR [TPN1 C-terminal 12 aa] are within error of each other in protein stability index: 0.709 ± 0.015 for the first, 0.74 ± 0.045 for the second.

PFGNGFKMNFGL [JEM1 C-terminal 12 aa] and PFKAIFDAVTKE [ARO1 C-terminal 12 aa] are within error of each other in protein stability index: 0.677 ± 0.058 for the first, 0.717 ± 0.021 for the second.

PFYRTSAESIDF [SLM5 C-terminal 12 aa] and PGCVIENGTKLY [ADE57 C-terminal 12 aa] are within error of each other in protein stability index: 0.706 ± 0.034 for the first, 0.71 ± 0.011 for the second.

First: PIKIIYNNKCPS [YLL006W-A C-terminal 12 aa]
Second: PKGGNYVSRYQR [THO2 C-terminal 12 aa]
The protein stability index of the first is higher: 0.688 ± 0.0074 for the first, 0.6623 ± 0.0015 for the second.

Compared with PKINPLHARKPT [RAD52 C-terminal 12 aa], PKSNMYYSWTQL [ORC4 C-terminal 12 aa] is lower in protein stability index: 0.7036 ± 0.0028 for the first, 0.68625 ± 0.00028 for the second.

First: PLALFYSHLILL [YGR151C C-terminal 12 aa]
Second: PLGVQFLDTFRR [DSC2 C-terminal 12 aa]
The protein stability index of the first is lower: 0.27 ± 0.016 for the first, 0.736 ± 0.051 for the second.

Going from “PLHFQLIWLPIF [YML099W-A C-terminal 12 aa]” to “PLKFPLPLKPPL [YHL034W-A C-terminal 12 aa]”, the protein stability index rises from 0.505 ± 0.012 to 0.699 ± 0.022.

PLMFHCTRWEVD [GEP5 C-terminal 12 aa] and PLPDLDEDDGEE [DOM34 C-terminal 12 aa] are within error of each other in protein stability index: 0.741 ± 0.064 for the first, 0.704 ± 0.041 for the second.

PLSASWCTSLVT [YHR173C C-terminal 12 aa] and PNFGFLILNSEP [YAL064W C-terminal 12 aa] are within error of each other in protein stability index: 0.671 ± 0.0088 for the first, 0.68 ± 0.014 for the second.

First: PNILLAFSYTAW [YNL170W C-terminal 12 aa]
Second: PPPPSRKCGTPK [LDB17 C-terminal 12 aa]
The protein stability index of the first is lower: 0.5663 ± 0.0014 for the first, 0.7238 ± 0.0025 for the second.

PSMTTTNFSAFM [ECM22 C-terminal 12 aa] and PSPTALANLARK [SGF29 C-terminal 12 aa] are within error of each other in protein stability index: 0.697 ± 0.058 for the first, 0.693 ± 0.041 for the second.

Going from PSSKAPSPGVNT [TEM1 C-terminal 12 aa] to PTPPGLQGPPGL [MSL5 C-terminal 12 aa], the protein stability index rises from 0.64 ± 0.026 to 0.693 ± 0.0097.

PVSESSSPNSWP [YDR230W C-terminal 12 aa] and QAADKRIDRNNP [SRD1 C-terminal 12 aa] are within error of each other in protein stability index: 0.706 ± 0.02 for the first, 0.702 ± 0.022 for the second.

QDELDAMKEMGF [CSM3 C-terminal 12 aa] and QDRSCSWLKLLL [YLR171W C-terminal 12 aa] are within error of each other in protein stability index: 0.699 ± 0.049 for the first, 0.704 ± 0.021 for the second.

Compared with QEISYKFSKTYS [IME1 C-terminal 12 aa], QELISLIDVINQ [RNH203 C-terminal 12 aa] is higher in protein stability index: 0.664 ± 0.038 for the first, 0.739 ± 0.035 for the second.

Compared with QFKQILENYRPT [VPS38 C-terminal 12 aa], QIVGLLKLLASI [PEX15 C-terminal 12 aa] is lower in protein stability index: 0.7348 ± 0.0013 for the first, 0.405 ± 0.038 for the second.

QIVGRYVVDTSK [ADH1 C-terminal 12 aa] and QKIDNALKMTGR [YDR102C C-terminal 12 aa] are within error of each other in protein stability index: 0.683 ± 0.015 for the first, 0.705 ± 0.0095 for the second.

QKLHAIDGEDEL [GPI17 C-terminal 12 aa] and QLQDLLSSENNK [AIM11 C-terminal 12 aa] are within error of each other in protein stability index: 0.649 ± 0.028 for the first, 0.688 ± 0.032 for the second.

QNYPIVSFSRVI [OSW1 C-terminal 12 aa] and QPINLDSISDDL [DRE2 C-terminal 12 aa] are within error of each other in protein stability index: 0.685 ± 0.012 for the first, 0.766 ± 0.12 for the second.

QQYFQEPQQGQY [MCM1 C-terminal 12 aa] and QSATKNQQNQGK [SSQ1 C-terminal 12 aa] are within error of each other in protein stability index: 0.703 ± 0.077 for the first, 0.656 ± 0.01 for the second.

QSKNIEIFSQIK [YGR067C C-terminal 12 aa] and QSQYSSRFVELD [MCO12 C-terminal 12 aa] are within error of each other in protein stability index: 0.695 ± 0.018 for the first, 0.6892 ± 0.0068 for the second.

First: QVKLSILKSLGF [UBC7 C-terminal 12 aa]
Second: QVTAVVVSYQGV [ATG11 C-terminal 12 aa]
The protein stability index of the first is higher: 0.657 ± 0.0096 for the first, 0.5999 ± 0.0039 for the second.

Compared with RAGSHSVGLLPM [UIP5 C-terminal 12 aa], RAQPGRKRKHKK [RSC58 C-terminal 12 aa] is higher in protein stability index: 0.6835 ± 0.0029 for the first, 0.696 ± 0.0068 for the second.

RDGQKTSLIRLI [YBR259W C-terminal 12 aa] and REETEKLNINKD [YAR1 C-terminal 12 aa] are within error of each other in protein stability index: 0.57 ± 0.11 for the first, 0.66 ± 0.067 for the second.

REVREIHEMYCK [YKR012C C-terminal 12 aa] and RGDDGESYAYLA [CDC53 C-terminal 12 aa] are within error of each other in protein stability index: 0.6885 ± 0.0035 for the first, 0.691 ± 0.0089 for the second.

RGFSFMPDDLDL [PKC1 C-terminal 12 aa] and RHQGQNIYRSGV [MCM5 C-terminal 12 aa] are within error of each other in protein stability index: 0.72 ± 0.028 for the first, 0.674 ± 0.022 for the second.

First: RHSMSEEELEMY [KTR4 C-terminal 12 aa]
Second: RKFSSSTNLAKF [TOS8 C-terminal 12 aa]
The protein stability index of the first is lower: 0.685 ± 0.044 for the first, 0.81 ± 0.012 for the second.

RKGWTGFKKVFK [GYP5 C-terminal 12 aa] and RLAKKVARRNAD [RPS24A C-terminal 12 aa] are within error of each other in protein stability index: 0.699 ± 0.061 for the first, 0.683 ± 0.024 for the second.

RLGDVLHVCCPS [YHL049C C-terminal 12 aa] and “RLKSSVICSGTS [YLR399W-A C-terminal 12 aa]” are within error of each other in protein stability index: 0.7 ± 0.097 for the first, 0.664 ± 0.015 for the second.

Compared with RMSNGLYTISMS [YPR050C C-terminal 12 aa], RNLLSTYHPMLM [YLR124W C-terminal 12 aa] is lower in protein stability index: 0.6869 ± 0.0011 for the first, 0.665 ± 0.0023 for the second.

Going from RNRLENISTMVI [YIA6 C-terminal 12 aa] to RPWYVRQFHFWC [TAT2 C-terminal 12 aa], the protein stability index falls from 0.709 ± 0.019 to 0.538 ± 0.011.

RQRRLQAAGRWF [PCP1 C-terminal 12 aa] and RRKITLIEDDEE [SAS3 C-terminal 12 aa] are within error of each other in protein stability index: 0.6854 ± 0.0044 for the first, 0.672 ± 0.019 for the second.

RRLKNKQRTRFQ [YNR021W C-terminal 12 aa] and RRMKLKERKRTT [YBL029W C-terminal 12 aa] are within error of each other in protein stability index: 0.698 ± 0.023 for the first, 0.655 ± 0.05 for the second.

RRNRGTPVKYTR [DOT1 C-terminal 12 aa] and RSHKCYPHDVRF [NAT3 C-terminal 12 aa] are within error of each other in protein stability index: 0.7 ± 0.016 for the first, 0.662 ± 0.024 for the second.

Going from RSVGKNSEKVST [QDR1 C-terminal 12 aa] to RTANVVGLDVPT [FMC1 C-terminal 12 aa], the protein stability index falls from 0.695 ± 0.01 to 0.6639 ± 0.0044.

First: RTAYILMYQKRN [UBP3 C-terminal 12 aa]
Second: RTLTTGNYHGLA [SYP1 C-terminal 12 aa]
The protein stability index of the first is lower: 0.1351 ± 0.00015 for the first, 0.6781 ± 0.0046 for the second.

Going from RVRRRLFAPEST [SLD3 C-terminal 12 aa] to RYRLSQRQESKK [MRX4 C-terminal 12 aa], the protein stability index falls from 0.802 ± 0.075 to 0.682 ± 0.021.

Going from SAIENYRKAYGI [URA10 C-terminal 12 aa] to SALILMYKGFGL [UBP6 C-terminal 12 aa], the protein stability index falls from 0.69935 ± 0.00068 to 0.683 ± 0.015.
